From patent US20230295298A1 (PRECISION BIOLOGICS, published 2023)

Columns and labels:
[1] = biological target: T1, human A33 antigen, full length, on cells (human, UniProt Q99795 22-319); assay: flow cytometry, AsPC-1 cells, 61.7 ng/ml, experiment 1
T1 construct: CHO cells transfected with full length A33 cDNA (A33-CHO), or endogenous antigen of LS174T (colon) and AsPC-1 (pancreatic) tumour cells; The cell line is named under assay; also called A33-CHO; A33 antigen on LS174T cells
T1 sequence: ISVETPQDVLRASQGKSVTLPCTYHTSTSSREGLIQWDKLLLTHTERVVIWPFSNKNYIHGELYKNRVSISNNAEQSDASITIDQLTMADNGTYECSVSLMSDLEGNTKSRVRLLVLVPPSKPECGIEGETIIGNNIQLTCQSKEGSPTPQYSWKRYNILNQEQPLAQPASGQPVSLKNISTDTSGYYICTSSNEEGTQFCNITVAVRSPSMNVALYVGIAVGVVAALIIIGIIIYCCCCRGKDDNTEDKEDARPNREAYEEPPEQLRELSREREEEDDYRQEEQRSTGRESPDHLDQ

[2] = biological target: T1, human A33 antigen, full length, on cells; assay: flow cytometry on LS174T cells, 0.37ug/mL
Description: (§1) Human IgG ELISA, rH-GPA33 Binding ELISA, cell Flow Cytometry (LS174T or AsPAC1), IHC staining (LS174T FFPE, tumor FFPE and Frozen tumor sections) and Coomassie blue staining of SDS-PAGE gel were used for the screening. Antibody in the culture supernatant was purified by Protein A/G purification in the column and dissolved in PBS buffer after three times dialysis. Aliquots of the antibodies were kept at -20° C. for storage.
(§2) Each combination was produced by transient transfection by using Expi293 Expression System Kit (Gibco, cat# A14635). […] Methods of Human IgG ELISA, rH-GPA33 Binding ELISA, LS174T cell Flow Cytometry, IHC staining on LS174T FFPE sections and Coomassie blue staining of SDS-PAGE gel were used for the initial screening.

[3] = biological target: T1, human A33 antigen, full length, on cells; assay: flow cytometry, AsPC-1 cells, 2.3 ng/ml, experiment 1
[4] = biological target: T1, human A33 antigen, full length, on cells; assay: flow cytometry, AsPC-1 cells, 555.6 ng/ml, experiment 1
[5] = biological target: T1, human A33 antigen, full length, on cells; assay: flow cytometry, AsPC-1 cells, 2.3 ng/ml, experiment 2
[6] = biological target: T1, human A33 antigen, full length, on cells; assay: flow cytometry, AsPC-1 cells, 61.7 ng/ml, experiment 2
[7] = biological target: T2, human recombinant A33 antigen (human, UniProt Q99795 22-235); assay: rH-GPA33 binding ELISA, first round supernatant
T2 construct: also called rH-GPA33; rHGPA33
T2 sequence: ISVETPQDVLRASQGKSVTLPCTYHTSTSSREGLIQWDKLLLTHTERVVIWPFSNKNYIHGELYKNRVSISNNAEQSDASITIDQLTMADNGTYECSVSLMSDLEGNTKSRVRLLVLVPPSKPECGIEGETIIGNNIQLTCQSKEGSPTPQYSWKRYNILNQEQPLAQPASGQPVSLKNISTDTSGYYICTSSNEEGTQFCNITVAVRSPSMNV

[8] = biological target: T2, human recombinant A33 antigen; assay: rH-GPA33 binding ELISA, 2ug/mL of 31.1, supernatant
Description: as §1, §2

[9] = biological target: T1, human A33 antigen, full length, on cells; assay: flow cytometry, AsPC-1 cells, 0 ng/ml (background, no antibody), experiment 1
[10] = biological target: T1, human A33 antigen, full length, on cells; assay: flow cytometry, AsPC-1 cells, 6.9 ng/ml, experiment 1
[11] = biological target: T1, human A33 antigen, full length, on cells; assay: flow cytometry, AsPC-1 cells, 185.2 ng/ml, experiment 1
[12] = biological target: T1, human A33 antigen, full length, on cells; assay: flow cytometry, AsPC-1 cells, 20.6 ng/ml, experiment 2
[13] = biological target: T1, human A33 antigen, full length, on cells; assay: flow cytometry, AsPC-1 cells, 1666.7 ng/ml, experiment 1
[14] = biological target: T1, human A33 antigen, full length, on cells; assay: flow cytometry, AsPC-1 cells, 1666.7 ng/ml, experiment 2
[15] = biological target: T1, human A33 antigen, full length, on cells; assay: flow cytometry, AsPC-1 cells, 555.6 ng/ml, experiment 2
[16] = biological target: T1, human A33 antigen, full length, on cells; assay: flow cytometry, AsPC-1 cells, 20.6 ng/ml, experiment 1
[17] = biological target: T1, human A33 antigen, full length, on cells; assay: flow cytometry, AsPC-1 cells, 185.2 ng/ml, experiment 2
[18] = biological target: T1, human A33 antigen, full length, on cells; assay: flow cytometry, AsPC-1 cells, 5000 ng/ml, experiment 2
[19] = biological target: T1, human A33 antigen, full length, on cells; assay: IHC on LS174T FFPE sections, 20ug/mL
Description: as §1, §2

[20] = biological target: T1, human A33 antigen, full length, on cells; assay: flow cytometry, AsPC-1 cells, 5000 ng/ml, experiment 1
[21] = biological target: T1, human A33 antigen, full length, on cells; assay: flow cytometry, AsPC-1 cells, 0 ng/ml (background, no antibody), experiment 2
[22] = biological target: T1, human A33 antigen, full length, on cells; assay: flow cytometry, AsPC-1 cells, 6.9 ng/ml, experiment 2

B1: humanized 31.1 antibody #11 (sdr31.1-HC + sdr31.1-LC) (antibody, human IgG1, kappa, V domains shown)
VH: QIQLVQSGAEVKKPGASVKVSCKASGYTFTNYGMNWVRQAPGKGLEWMGWINPYTGEPTYAQKFQGRVTFTLDTSISTAYMELSRLRSDDTAVYFCARAYYGKYFDYWGQGTTVTVSS
VL: SIQMTQSPSSLSASVGDRVTITCRASQSISNDLAWYQQKPGQSPKLLIYYASNRYTGVPDRFSGSGYGTDFTLTISSLQPEDFAVYFCQQDYSSPLTFGAGTKLEIKR
notes: Full heavy and light chains; supernatant in the first screen, Protein A/G purified in the third round; used as negative control; also called Sample ID 11; sdr-HC + sdr-LC
How did the MFI [1] turn out when B1 was run?
The MFI was 5.9 MFI.

And the MFI [2]?
Its MFI is 5.6 MFI.

And the MFI [3]?
The MFI was 3.4 MFI.

And the MFI [4]?
Its MFI is 16.2 MFI.

And the MFI [5]?
The MFI was 3.5 MFI.

And the MFI [6]?
Its MFI is 5.3 MFI.

Does B1 bind [7]?
Result: no binding

And the “OD Value of rH-GPA33 Binding ELISA” value [8]?
Its value is 0.06 OD.

And the MFI [9]?
Its MFI is 3.6 MFI.

What about the MFI [10] of the same binder?
Its MFI is 3.6 MFI.

And the MFI [11]?
The MFI was 8.2 MFI.

What about the MFI [12] of the same binder?
Its MFI is 4 MFI.

And the MFI [13]?
The MFI was 38.9 MFI.

And the MFI [14]?
Its MFI is 39 MFI.

And the MFI [15]?
Its MFI is 16.6 MFI.

What about the MFI [16] of the same binder?
The MFI was 4 MFI.

What about the MFI [17] of the same binder?
Its MFI is 8.2 MFI.

What about the MFI [18] of the same binder?
Its MFI is 117 MFI.

And the H-Score of IHC [19]?
The H-Score of IHC was 160 H-Score.

What about the MFI [20] of the same binder?
Its MFI is 117 MFI.

And the MFI [21]?
The MFI was 3.6 MFI.

And the MFI [22]?
Its MFI is 3.6 MFI.
